Here are results for 29 molecules from patent US20210269480A1 (published 2021).

*1 amine or outer side, *2 acyl side, *3 side chain or, on linkers, in order; H or OH if unused. Bridges are numbered along the chain shown (N, C = ends). Primed or numbered codes have the meaning given here. Where no end group is shown, it is not given here. [ ]: non-standard residue; d: D form. TATA = O=C(CC[*:1])N1CN(C(=O)CC[*:2])CN(C(=O)CC[*:3])C1; 1Nal = N[C@@H](Cc1cccc2ccccc12)C(=O)O; PABC = O=C(OCc1ccc(N[*:1])cc1)[*:2]; Glutaryl = O=C(CCCC(=O)[*:2])[*:1]; Cya = N[C@@H](CS(=O)(=O)O)C(=O)O; Hyp = O=C(O)[C@@H]1C[C@@H](O)CN1; dCya = N[C@H](CS(=O)(=O)O)C(=O)O; hArg = N=C(N)NCCCC[C@H](N)C(=O)O; Cit = NC(=O)NCCC[C@H](N)C(=O)O; MMAE = monomethyl auristatin E; PABC′ = p-aminobenzylcarbamate; Agb = N=C(N)NCC[C@H](N)C(=O)O; βAla = NCCC(=O)O; Sar = CNCC(=O)O

B1: BCY8277 (peptide)
peptide: {Ac-βAla}-[Sar][Sar][Sar][Sar][Sar][Sar][Sar][Sar][Sar][Sar]CP[1Nal][dD]CM[Cya]DWSTP[Hyp]WC
modifications: linker 11-15-25 via TATA
notes: Bicyclic peptide cyclised with TATA
B2: BCY8215 (peptide)
peptide: Ac-CP[1Nal][dR]CM[hArg]DWSTPIWC
modifications: linker 1-5-15 via TATA
notes: as for B1
B3: BCY8276 (peptide)
peptide: {Ac-βAla}-[Sar][Sar][Sar][Sar][Sar][Sar][Sar][Sar][Sar][Sar]CP[1Nal][dCya]CM[hArg]DWSTP[Hyp]WC
modifications: linker 11-15-25 via TATA
notes: as for B1
B4: BCY8184 (peptide)
peptide: Ac-CP[1Nal][dR]CM[hArg]DWSTP[Hyp]WC
modifications: linker 1-5-15 via TATA
notes: as for B1
B5: BCY8279 (peptide)
peptide: {Ac-βAla}-[Sar][Sar][Sar][Sar][Sar][Sar][Sar][Sar][Sar][Sar]CP[1Nal][dCya]CM[Cya]DWSTP[Hyp]WC
modifications: linker 11-15-25 via TATA
notes: as for B1
B6: BCY8192 (peptide)
peptide: Ac-CP[1Nal][dR]CM[Agb]DWSTP[Hyp]WC
modifications: linker 1-5-15 via TATA
notes: as for B1
B7: BCY8238 (peptide)
peptide: [βAla][Sar][Sar][Sar][Sar][Sar][Sar][Sar][Sar][Sar][Sar]CP[1Nal][dD]CMKDWSTP[Hyp]WC
modifications: linker 12-16-26 via TATA
notes: as for B1
B8: BCY8193 (peptide)
peptide: Ac-CP[1Nal][dR]CMPDWSTP[Hyp]WC
modifications: linker 1-5-15 via TATA
notes: as for B1
B9: BCY8194 (peptide)
peptide: Ac-CP[1Nal][dR]CM[Hyp]DWSTP[Hyp]WC
modifications: linker 1-5-15 via TATA
notes: as for B1
B10: BCY471 (peptide)
peptide: ACVTTSYDCFLHLLGCA
modifications: linker 2-9-16 via TATA; not fully specified
notes: Direct FP used peptides with a fluorescent tag; also called 80-11-00
B11: 80-09-02-N006 (peptide)
peptide: ACPFGCMKNWSWPIWCA
modifications: linker 2-6-16 via TATA; not fully specified (N-terminus)
notes: also called FI-A-(SQ ID NO: 1)-A
B12: BCY472 (peptide)
peptide: ACVTTSYDCWVRLGQCA
modifications: linker 2-9-16 via TATA; not fully specified
notes: Direct FP used peptides with a fluorescent tag; also called 80-11-01
B13: BCY3400 (peptide)
peptide: QKWCAPLSDYWCNRICA
modifications: linker 4-12-16 via TATA; not fully specified
notes: also called 80-10-13-T01
B14: BCY462 (peptide)
peptide: VDWCAPLDDYWCDRICA
modifications: linker 4-12-16 via TATA; not fully specified
notes: Direct FP used peptides with a fluorescent tag; also called 80-10-12-T01
B15: BCY488 (peptide)
peptide: ACWPLDSYWCARICA
modifications: linker 2-10-14 via TATA; not fully specified
notes: Direct FP used peptides with a fluorescent tag; also called 80-10-00
B16: BCY8208 (peptide)
peptide: carboxyfluorescein-CPF[dD]CM[hArg]NWSTPIWC
modifications: linker 1-5-15 via TATA
B17: BCY3406 (peptide)
peptide: ACVTTSYDCWVTLGHCSRF
modifications: linker 2-9-16 via TATA; not fully specified
notes: Direct FP used peptides with a fluorescent tag; also called 80-11-08-T01
B18: BCY8280 (peptide)
peptide: {Ac-βAla}-[Sar][Sar][Sar][Sar][Sar][Sar][Sar][Sar][Sar][Sar]CP[1Nal][dCya]CM[hArg][Cya]WSTP[Hyp]WC
modifications: linker 11-15-25 via TATA (inferred)
B19: BCY8784 (peptide)
peptide: {MMAE-PABC′-Cit-Val-Glutaryl-βAla}-[Sar][Sar][Sar][Sar][Sar][Sar][Sar][Sar][Sar][Sar]CP[1Nal][dCya]CM[hArg][Cya]WSTP[Hyp]WC
modifications: linker 11-15-25 via TATA (inferred)
B20: BCY8161 (peptide)
peptide: Ac-CP[1Nal][dD]CM[hArg][Cya]WSTP[Hyp]WC
modifications: linker 1-5-15 via TATA (inferred)
B21: BCY8281 (peptide)
peptide: {Ac-βAla}-[Sar][Sar][Sar][Sar][Sar][Sar][Sar][Sar][Sar][Sar]CP[1Nal][dD]CM[Cya][Cya]WSTP[Hyp]WC
modifications: linker 11-15-25 via TATA (inferred)
B22: BCY8278 (peptide)
peptide: {Ac-βAla}-[Sar][Sar][Sar][Sar][Sar][Sar][Sar][Sar][Sar][Sar]CP[1Nal][dD]CM[hArg][Cya]WSTP[Hyp]WC
modifications: linker 11-15-25 via TATA (inferred)
B23: BCY8245 (peptide)
peptide: {MMAE-PABC-Cit-Val-Glutaryl-βAla}-[Sar][Sar][Sar][Sar][Sar][Sar][Sar][Sar][Sar][Sar]CP[1Nal][dD]CM[hArg]DWSTP[Hyp]WC
modifications: linker 11-15-25 via TATA
notes: also called BT8009; MMAE-PABC-Cit-Val-Glutaryl-BCY8234
B24: BCY7825 (peptide)
peptide: {MMAE-PABC′-Cit-Val-Glutaryl-βAla}-[Sar][Sar][Sar][Sar][Sar][Sar][Sar][Sar][Sar][Sar]CPF[dD]CM[hArg]NWSTPIWC
modifications: linker 11-15-25 via TATA
notes: also called MMAE-PABC-Cit-Val-Glutaryl-BCY7814
B25: BCY8253 (peptide)
peptide: {MMAE-PABC′-Cit-Val-Glutaryl-βAla}-[Sar][Sar][Sar][Sar][Sar][Sar][Sar][Sar][Sar][Sar]CP[1Nal][dR]CL[hArg]HWSTP[Hyp]WC
modifications: linker 11-15-25 via TATA
notes: also called MMAE-PABC-Cit-Val-Glutaryl-BCY8231
B26: BCY8254 (peptide)
peptide: {MMAE-PABC′-Cit-Val-Glutaryl-βAla}-[Sar][Sar][Sar][Sar][Sar][Sar][Sar][Sar][Sar][Sar]CP[1Nal][dR]CM[hArg]NWSTP[Hyp]WC
modifications: linker 11-15-25 via TATA
notes: also called MMAE-PABC-Cit-Val-Glutaryl-BCY8232
B27: BCY8255 (peptide)
peptide: {MMAE-PABC′-Cit-Val-Glutaryl-βAla}-[Sar][Sar][Sar][Sar][Sar][Sar][Sar][Sar][Sar][Sar]CP[1Nal][dR]CM[hArg]DWSTP[Hyp]WC
modifications: linker 11-15-25 via TATA
notes: also called MMAE-PABC-Cit-Val-Glutaryl-BCY8235
B28: BCY7683 (peptide)
peptide: {MMAE-PABC-Cit-Val-Glutaryl-βAla}-[Sar][Sar][Sar][Sar][Sar]CPF[dD]CM[hArg]NWSWPIWC
modifications: linker 6-10-20 via TATA
notes: also called MMAE-PABC-Cit-Val-Glutaryl-BCY7556
B29: BCY8783 (peptide)
peptide: {MMAE-PABC′-Cit-Val-Glutaryl-βAla}-[Sar][Sar][Sar][Sar][Sar][Sar][Sar][Sar][Sar][Sar]CP[1Nal][dCya]CM[hArg]DWSTP[Hyp]WC
modifications: linker 11-15-25 via TATA
notes: also called MMAE-PABC-Cit-Val-Glutaryl-BCY8269

The target of the first assay is T1, Human Nectin-4 (residues Gly32-Ser349) with C-terminal FLAG tag, biotinylated (human, UniProt Q96NY8 32-349, randomly biotinylated with EZ-Link Sulfo-NHS-LC-LC-Biotin).
T1 construct: range 32-349; Captured through biotin on a streptavidin CM5 chip in the SPR assay; also called PVRL4; not shown: C-terminal FLAG tag
T1 sequence (looked up): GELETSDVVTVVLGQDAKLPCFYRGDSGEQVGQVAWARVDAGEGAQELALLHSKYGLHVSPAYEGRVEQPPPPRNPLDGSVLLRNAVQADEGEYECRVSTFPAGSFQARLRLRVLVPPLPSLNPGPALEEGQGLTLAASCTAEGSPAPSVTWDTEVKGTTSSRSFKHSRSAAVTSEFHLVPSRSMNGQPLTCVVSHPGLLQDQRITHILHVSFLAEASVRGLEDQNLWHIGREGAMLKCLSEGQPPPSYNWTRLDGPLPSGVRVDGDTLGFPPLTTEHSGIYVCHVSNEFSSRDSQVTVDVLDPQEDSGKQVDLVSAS
The assay can be described thus: SPR (Biacore), biotinylated human Nectin-4 on streptavidin chip. On the technique in general: SPR reads the build-up and loss of mass on a sensor chip optically.
The Kd is the concentration at which binding is half-saturated. A lower Kd goes with a tighter complex. B1 came in with a Kd of 5.99 nM.
Same read-out and setting: the figure for B2 is 1.62 nM; for B3 it is 0.86 nM; for B4 it is 0.56 nM.
In turn, B5 gave a Kd of 3.31 nM.
Still for that read-out and setting: the figure for B6 is 1.81 nM.
On the same count and under the same terms, then B7, with 3.88 nM; and B8, with 1.3 nM.
On the same count and under the same terms, the figure for B9 is 1.9 nM.

The target in another assay is T2, human Nectin-4 (human, UniProt Q96NY8 32-349).
T2 construct: a Gly32-Ser349 FLAG construct is described only under the SPR assay; also called PVRL4
T2 sequence (looked up): T1 sequence (looked up)
In words: FP direct binding, fluorescent peptide. On the procedure: Affinity of the peptides of the invention for human Nectin-4 (Ki) was determined using a fluorescence polarisation assay, in accordance with the methods disclosed in WO 2016/067035. […] Measurements were conducted on a BMG PHERAstar FS equipped with an “FP 485 520 520” optic module which excites at 485 nm and detects parallel and perpendicular emission at 520 nm. The PHERAstar FS was set at 25° C. with 200 flashes per well and a positioning delay of 0.1 second, with each well measured at 5 to 10 minute intervals for 60 minutes. […] Data was analysed using Systat Sigmaplot version 12.0. mP values were fit to a user defined quadratic equation to generate a Kd value: f=ymin+(ymax−ymin)/Lig*((x+Lig+Kd)/2-sqrt((((x+Lig+Kd)/2)\hat{ }2)-(Lig*x))).
What is called Ki is the dissociation constant of the complex between target and ligand, obtained from inhibition or displacement. Lower therefore signals a stronger hold on the target. With B10, the Ki is 888 nM.
On the same count and under the same terms, then B11, with 5 nM; and B12, with 502 nM; and B13, with 72 nM.
The same measure, in the same setting: the figure for B14 is 269 nM; for B15 it is 208 nM.
The same measure, in the same setting: then B16, with 745 nM.
In turn, B17 yielded an inhibition constant Ki of 30 nM.

For another assay, the target named is Human Nectin-4 (residues Gly32-Ser349) with C-terminal FLAG tag, biotinylated (human) (UniProt Q96NY8). The assay can be described thus: SPR (Biacore), biotinylated human Nectin-4 on streptavidin chip.
In the case of B18, the Kd came to 2 nM.
The same measure, in the same setting: then B19, with 0.662 nM; and B20, with 0.94 nM.
Same read-out and setting: the figure for B21 is 6.11 nM.
On the same count and under the same terms, then B22, with 1.92 nM.

The target of a further assay is T2, human Nectin-4. The assay can be described thus: FP competition, tracer SEQ ID NO 217. On the procedure:
Peptides were diluted to an appropriate concentration in assay buffer as described in the direct binding assay with a maximum of 5% DMSO, then serially diluted 1 in 2. […] Measurements were conducted as for the direct binding assay, however the gain was determined prior to the first measurement. Data analysis was in Systat Sigmaplot version 12.0 where the mP values were fit to a user defined cubic equation to generate a Ki value: […]
In turn, B20 returned a Ki of 4 nM. This lies in the single-digit nanomolar range.
The molecule B13 came in with a Ki of 47 nM. Against the preceding molecule, the Ki is about 12-fold higher.

The target in another assay is T1, Human Nectin-4 (residues Gly32-Ser349) …. The assay can be described thus: SPR (Biacore), biotinylated human Nectin-4 on streptavidin chip. This is another data set of the same source.
For B23, the Kd is 5.12 nM.
On the same count and under the same terms, the figure for B24 is 11.6 nM; for B25 it is 6.22 nM.
On the same count and under the same terms, then B26, with 4.11 nM.
The molecule B27 had a dissociation constant (Kd) of 8.58 nM. This Kd lies about 2.1-fold higher than the previous one.
The same measure, in the same setting: then B28, with 27.1 nM; and B29, with 0.804 nM.
